{"source": "paper PMC2938955", "about": "(Biochemistry, 2010)", "binders": {"B1": {"name": "EB1 fragment (residues 194 to 268) (domain or fragment, UniProt Q15691 194-268, looked up)", "chain": "AELMQQVNVLKLTVEDLEKERDFYFGKLRNIELICQENEGENDPVLQRIVDILYATDEGFVIPDEGGPQEEQEEY"}}, "key": {"[1]": {"target": "p150^Glued CAP-gly domain, wildtype (residues 19-107) (UniProt Q14203-1 19-107)", "sequence (Q14203 19-107)": "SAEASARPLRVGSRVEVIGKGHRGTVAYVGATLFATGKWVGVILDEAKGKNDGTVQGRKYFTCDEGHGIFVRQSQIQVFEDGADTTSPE", "assay": "SEC"}, "[2]": {"target": "p150^Glued CAP-gly domain (residues 19-107) G59A (UniProt Q14203-1 19-107, G59A)", "sequence (Q14203 19-107 G59A)": "as the sequence (Q14203 19-107) above, with G41A counted along it", "assay": "SEC"}}}
{"binder": "B1", "values": [{"measurement": "binding result", "setting": "[1]", "value": "binds"}, {"measurement": "binding result", "setting": "[2]", "value": "binds"}]}
